Reference: patent US20050019833A1, “Proteins capable of binding to environmental hormones and process for producing the same” (priority 2002, published 2005)
Residue numbers refer to the chain shown, from its start.

B1: anti-alkylphenol monoclonal antibody: monoclonal antibody (IgG2b, kappa) produced by mouse hybridoma AP-14 (FERM BP-6633) (antibody, V domains shown)
VH: QVQLQQSAAELARPGASVKMSCKASGYRFTRYTMHWVKQRPGQGLEWIGNINPSSGDTEYNQKFKDKTTLTADKSSTTAYMQLSSLTSEDSAVYYCATPIFYYGSRYVRYEMDYWGQGTSVTVSS
VL: DIVMTQAAFSNPVTLGTSTSISCRSTKSLLHSNGITYLYWYLQKPGQSPQLLIYQMSNLASGVPDRFSSSGSGTDFTLRISRVEAEDVGVYYCAQNLELPYTFGGGTKLEIKR
modifications: Mouse
B2: anti-alkylphenolethoxylate monoclonal antibody: monoclonal antibody (IgG1, kappa) produced by mouse hybridoma MOF3-139 (FERM BP-6059) (antibody, V domains shown)
VH: QVQLQQSGAELMKPGASVKISCKVTGYTFRSYWIEWVKQRPGHGLEWIGEILVGSGSTKYNEKFKGKATITAQTSSNTVYMQLSSLTSEDSAVYYCARPFFGSRYDYSDFWGQGTTLTVSS
VL: B1 VL with T17S, T19A, T26S, S32R, L51V
modifications: Mouse

Legend:
[1] = indirect competitive ELISA, nonylphenol standard solution; format: binding; details: FIG. 5; cross-reactivity (%)=[IC50 of NP10EO/IC50 of test compound]x100
Description: (§1) A nonylphenoldecaethoxylate (NPLOEO) standard solution was used in (A), a nonylphenoxyacetic acid (NPLEC) standard solution was used in (B), and a nonylphenol (NP) standard solution was used in (C).
(§2) Moreover, a nonylphenoldecaethoxylate (NPLOEO) standard solution was used in (A) and (B), a nonylphenoxyacetic acid (NPLEC) standard solution was used in (C) and (D) and a nonylphenol (NP) standard solution was used in (E) and (F).
(§3) A conjugate (5 μg/mL) of hapten and bovine serum albumin (BSA) (100 μL/each well) was added to a 96-well microtiter plate and stood at 4° C. overnight. After removing the liquid from the well, 300 μL of Block Ace (purchased from Dainippon Pharmaceutical Co., Ltd.) 4-fold diluted with distillated water was added to each well and stood at 4° C. overnight. After removing the liquid from the well, a standard solution (50 μL) of nonylphenol decaethoxylate stepwise diluted with phosphate buffer (10 mM sodium phosphate (purchased from Nacalai Tesque, Inc.), 150 mM NaCl, pH 7.2) was added to each well. […] The mixture was incubated at 25° C. for 1 hr and each well was washed 4 times with a phosphate buffer. Then, 100 μL of mouse anti-HSV tagged antibody (purchased from Amersham Pharmacia Biotech), diluted with a phosphate buffer to 0.1 μg/mL, was added to each well and the mixture was incubated at 25° C. for 1 hr. […] The absorbance at wavelength of 450 nm was measured.

[2] = indirect competitive ELISA, nonylphenoxyacetic acid standard solution; format: binding; details: FIG. 5; cross-reactivity (%)=[IC50 of NP10EO/IC50 of test compound]x100
Description: as §1, §2, §3

Row | Molecule | cross-reactivity with NP [1] | cross-reactivity with NP1EC [2]
1 | B1 | shows cross-reactivity | shows cross-reactivity
2 | B2 | hardly shows cross-reactivity | hardly shows cross-reactivity
